# Results reported in patent publication US20140170239A1 (VRIJE UNIVERSITEIT BRUSSEL, published 2014).
# Where no end group is shown, it is not given here.
# B1: FLAG-tagged Cyclin-I2 (other, human, UniProt Q6ZMN8 1-369, looked up)
# chain: MASGAQLPPQPSSSEVSAVQSPGGRPGAGLEETALGVPLPPSPGEAPLPRSNRSRCPGTRQPGAASLHAASAAVPVRPRRGTAPAGKTADAVPAAAPEQAPRPAPQSRKPRNLEGDLDERRLLCHLQLAQDREARLWRGGKPQDEICDAFEEVVLWLLRLQNTFYFSQSTFNLALTIFGRLLISVKVKEKYLHCATITSLRLAAKVNEEEEFIPQVKDFTKHYGSDYSPNELLRMELAILDRLHWDLYIGTPLDFLTIFHALVVLSWPHVLELLPQRNPSLHVASLTRQLQHCMAGHQLLQFKGSTLALVIITLELERLMPGWCAPISDLLKKAQVGDMQYSCCKELVMQQLRSLQSSSCTDNFVSPAN
# notes: also called CCNI2_HUMAN; CCNI2
# B2: CPNE2_HUMAN peptide ILLIITD (peptide)
# peptide: ILLIITD
# notes: spot-synthesized on membrane; also called Copine-2 (CPNE2) segment; position Nr 42
# B3: DHX33_HUMAN peptide ILTIVSL (peptide)
# peptide: ILTIVSL
# notes: spot-synthesized on membrane; also called position Nr 4
# B4: P73_HUMAN peptide ILIIITL (peptide)
# peptide: ILIIITL
# notes: spot-synthesized on membrane; also called p73β; position Nr 35
# B5: P63_HUMAN peptide ILIIVTL (peptide)
# peptide: ILIIVTL
# notes: spot-synthesized on membrane; also called p63β; position Nr 16
# B6: CASP8_HUMAN peptide ILTILTE (peptide)
# peptide: ILTILTE
# notes: spot-synthesized on membrane; also called caspase-8 (CASP8) segment; position Nr 11
# B7: SPEF2_HUMAN peptide ILSIDTL (peptide)
# peptide: ILSIDTL
# notes: spot-synthesized on membrane; also called position Nr 54
# B8: TAGAP_HUMAN peptide ILTILCL (peptide)
# peptide: ILTILCL
# notes: spot-synthesized on membrane; also called position Nr 5
# B9: ANXA6_HUMAN peptide ILDIITS (peptide)
# peptide: ILDIITS
# notes: spot-synthesized on membrane; also called annexin-6 peptide fragment; position Nr 29
# B10: CC132_HUMAN peptide ILTNTTL (peptide)
# peptide: ILTNTTL
# notes: spot-synthesized on membrane; also called position Nr 21
# B11: METH_HUMAN peptide ILTIGTG (peptide)
# peptide: ILTIGTG
# notes: spot-synthesized on membrane; also called methionine synthase (METH) segment; position Nr 38
# B12: CCNI2_HUMAN peptide ALVIITL (peptide)
# peptide: ALVIITL
# notes: spot-synthesized on membrane; also called position Nr 23
# B13: MX2_HUMAN peptide DLTIIDL (peptide)
# peptide: DLTIIDL
# notes: spot-synthesized on membrane; also called position Nr 50
# B14: CGRF1_HUMAN peptide ITTGITL (peptide)
# peptide: ITTGITL
# notes: spot-synthesized on membrane; also called CGRF1 segment; position Nr 30
# B15: CD041_HUMAN peptide ITTVITL (peptide)
# peptide: ITTVITL
# notes: spot-synthesized on membrane; also called position Nr 8
# B16: VATA_HUMAN peptide IYTGITL (peptide)
# peptide: IYTGITL
# notes: spot-synthesized on membrane; also called position Nr 14
# B17: NOL11_HUMAN peptide ILTKYTL (peptide)
# peptide: ILTKYTL
# notes: spot-synthesized on membrane; also called position Nr 37
# B18: CND2_HUMAN peptide ILTKSTL (peptide)
# peptide: ILTKSTL
# notes: spot-synthesized on membrane; also called position Nr 51
# B19: MYST3_HUMAN peptide ILTKPTL (peptide)
# peptide: ILTKPTL
# notes: spot-synthesized on membrane; also called position Nr 28
# B20: Control peptide RRPILTIITLEDGS (peptide)
# peptide: RRPILTIITLEDGS
# notes: spot-synthesized on membrane; longer peptide that holds ILTIITL; also called position Nr 2
# B21: CYTIP_HUMAN peptide LLTIETL (peptide)
# peptide: LLTIETL
# notes: spot-synthesized on membrane; also called position Nr 24
# B22: PRA10_HUMAN peptide FLTIFTL (peptide)
# peptide: FLTIFTL
# notes: spot-synthesized on membrane; also called position Nr 25
# B23: PK3C3_HUMAN peptide ILQIISL (peptide)
# peptide: ILQIISL
# notes: spot-synthesized on membrane; also called position Nr 18
# B24: KV122_HUMAN peptide ILTISSL (peptide)
# peptide: ILTISSL
# notes: spot-synthesized on membrane; also called position Nr 22
# B25: TAF4B_HUMAN peptide ILKQITL (peptide)
# peptide: ILKQITL
# notes: spot-synthesized on membrane; also called position Nr 49
# B26: BPA1_HUMAN peptide ILKNITL (peptide)
# peptide: ILKNITL
# notes: spot-synthesized on membrane; also called position Nr 46
# B27: CD2A1_HUMAN peptide ILRQITL (peptide)
# peptide: ILRQITL
# notes: spot-synthesized on membrane; also called position Nr 56
# B28: P53_HUMAN peptide ILTIITL (immobilised spot) (peptide)
# peptide: ILTIITL
# notes: spot-synthesized on membrane; also called p53β; position Nr 1
# B29: CBPC3_HUMAN peptide ILTITTP (peptide)
# peptide: ILTITTP
# notes: spot-synthesized on membrane; also called position Nr 39
# B30: CM031_HUMAN peptide KLTIITS (peptide)
# peptide: KLTIITS
# notes: spot-synthesized on membrane; also called position Nr 53
# B31: RTEL1_HUMAN peptide ILTSGTL (peptide)
# peptide: ILTSGTL
# notes: spot-synthesized on membrane; also called position Nr 36
# B32: DIP2B_HUMAN peptide ILTSQTL (peptide)
# peptide: ILTSQTL
# notes: spot-synthesized on membrane; also called position Nr 20
# B33: PDS5A_HUMAN peptide IVTIITA (peptide)
# peptide: IVTIITA
# notes: spot-synthesized on membrane; also called position Nr 3
# B34: MP2K4_HUMAN peptide ILGKITL (peptide)
# peptide: ILGKITL
# notes: spot-synthesized on membrane; also called position Nr 17
# B35: DHX29_HUMAN peptide ILQIITE (peptide)
# peptide: ILQIITE
# notes: spot-synthesized on membrane; also called position Nr 44
# B36: ZN830_HUMAN peptide ILTIKEL (peptide)
# peptide: ILTIKEL
# notes: spot-synthesized on membrane; also called position Nr 31
# B37: RFC5_HUMAN peptide ILTEIHL (peptide)
# peptide: ILTEIHL
# notes: spot-synthesized on membrane; also called position Nr 34
# B38: AL2SA_HUMAN peptide GLTIPTL (peptide)
# peptide: GLTIPTL
# notes: spot-synthesized on membrane; also called position Nr 52
# B39: KV117_HUMAN peptide TLTISTL (peptide)
# peptide: TLTISTL
# notes: spot-synthesized on membrane; also called position Nr 15
# B40: BPTF_HUMAN peptide VLTISTL (peptide)
# peptide: VLTISTL
# notes: spot-synthesized on membrane; also called position Nr 10
# B41: SMG1_HUMAN peptide ILTLIEL (peptide)
# peptide: ILTLIEL
# notes: spot-synthesized on membrane; also called position Nr 41
# B42: PTPC1_HUMAN peptide IKTIINL (peptide)
# peptide: IKTIINL
# notes: spot-synthesized on membrane; also called position Nr 33
# B43: HEAT1_HUMAN peptide ILTKISL (peptide)
# peptide: ILTKISL
# notes: spot-synthesized on membrane; also called position Nr 13
# B44: CXL11_HUMAN peptide IEVIITL (peptide)
# peptide: IEVIITL
# notes: spot-synthesized on membrane; also called position Nr 32
# B45: LRC40_HUMAN peptide IHAIITL (peptide)
# peptide: IHAIITL
# notes: spot-synthesized on membrane; also called position Nr 27
# B46: KLH32_HUMAN peptide ILCDITL (peptide)
# peptide: ILCDITL
# notes: spot-synthesized on membrane; also called position Nr 43
# B47: SCC4_HUMAN peptide IQTISTL (peptide)
# peptide: IQTISTL
# notes: spot-synthesized on membrane; also called position Nr 55
# B48: LONF2_HUMAN peptide ILVIITR (peptide)
# peptide: ILVIITR
# notes: spot-synthesized on membrane; also called position Nr 48
# B49: RTTN_HUMAN peptide ILTICTK (peptide)
# peptide: ILTICTK
# notes: spot-synthesized on membrane; also called position Nr 47
# B50: BN3D2_HUMAN peptide ALTFITL (peptide)
# peptide: ALTFITL
# notes: spot-synthesized on membrane; also called position Nr 7
# B51: DYH3_HUMAN peptide ILTFKTL (peptide)
# peptide: ILTFKTL
# notes: spot-synthesized on membrane; also called position Nr 12
# B52: BCL6B_HUMAN peptide ILTDVTL (peptide)
# peptide: ILTDVTL
# notes: spot-synthesized on membrane; also called position Nr 40
# B53: CT132_HUMAN peptide IKSIITL (peptide)
# peptide: IKSIITL
# notes: spot-synthesized on membrane; also called position Nr 45
# B54: PGTA_HUMAN peptide LLTIILL (peptide)
# peptide: LLTIILL
# notes: spot-synthesized on membrane; also called position Nr 9
# B55: EPMIP_HUMAN peptide LLTIINL (peptide)
# peptide: LLTIINL
# notes: spot-synthesized on membrane; also called position Nr 6
# B56: TRI18_HUMAN peptide CLTIITG (peptide)
# peptide: CLTIITG
# notes: spot-synthesized on membrane; also called position Nr 26
# B57: GCDH_HUMAN peptide MLTEITL (peptide)
# peptide: MLTEITL
# notes: spot-synthesized on membrane; also called position Nr 19
# Biological target: T1, HA-tagged wild-type p53 (human, UniProt P04637 1-393)
# T1 construct: range 1-393; expressed in cells, tested in cell lysate; also called WT p53; p53-HA
# Assay: co-IP, HeLa cells, anti-FLAG IP, anti-HA blot
# Procedure: HeLa (Human epithelial carcinoma) cells were cultured in DMEM supplemented with 10% fetal calf serum (Gibco), L-glutamine (4 mM), penicillin (100 U/ml), and streptomycin (100 U/ml). Proliferating cell cultures were maintained in a 5% CO2-humidified incubator at 37° C. […] The complex of DNA and FuGENE HD was prepared in 500 μL DMEM and incubated for 20 minutes before adding to cells. For stable transfection, DMEM medium containing 10% fetal calf serum and 500 μg/mL G418 was used to select colonies that carried the transfected vector for six weeks, and expression of the vector was validated by Western blot. Stably transfected cells were maintained in medium containing 250 μg/mL G418 for further analysis. Transfection of siRNA for p53 (Santa Cruz) was performed using X-tremeGENE siRNA transfection reagent (Roche) according to the manufacturer's instructions.
# Hela cells co-transfected with mutant HA-p53 and FLAG-tagged proteins were lysed with RIPA buffer (Thermo) with DNase and protease inhibitors (Roche) for 30 minutes on ice. […] After incubation at 21° C. for 1 hour, the agarose beads were rinsed with 200 μL TBS three times, and subsequently eluted by heating at 95° C. in presence of SDS (without DTT). The co-immunoprecipitated p53 was detected with mouse anti-HA antibody or anti-p53.
row,Binder,binding result
1,B1,no binding

# Biological target: T2, biotinylated p53β peptide (human, also: biotinylated, site not given here)
# T2 construct: also called biotinylated p53-aggregating peptide
# T2 peptide: ILTIITL
# Assay: peptide-binding assay: peptide spots on membrane, biotinylated p53β peptide, streptavidin-HRP;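 for Binding intensity (normalized): Membrane-bound synthesized peptide spots exposed to the biotinylated p53 aggregation-prone peptide, bound material revealed via streptavidin-HRP and chemiluminescence, spot signal reflecting binding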
row,Binder,Coaggregation (peptide binding) [%]
1,B2,111
2,B3,10.2
3,B4,99
4,B5,92
5,B6,11.4
6,B7,79.6
7,B8,4.8
8,B9,78.9
9,B10,77
10,B11,49.2
11,B12,43.4

# Biological target: T2, biotinylated p53β peptide
# Assay: as above
# Remark: another data set of the same source
# Procedure: Subsequently, the ability of the selected peptides to interact with p53β using an in vitro peptide-binding assay was empirically determined. Therefore, the 56 selected peptides were spot-synthesized on a cellulose membrane, which was subsequently incubated with biotinylated p53β peptide (FIG. 17, panel b). After washing, the membrane was treated with streptavidine-HRP to detect p53β binding (FIG. 17, panel c).
# Peptides of selected sequences were spot synthesized on PVDF membrane (PepSpot, JPT). The membranes were blocked by 1% BSA in phosphate-buffered saline for 1 hour at room temperature, and then incubated with biotinylated peptide containing the p53-aggregating sequence for 1 hour. After rinsing with 0.1% TWEEN® 20 in 25 mM MES buffer pH 7.0, membranes were incubated in HRP-labeled Streptavidin (Thermo) and visualized with electrochemical luminescence (ECL) system.
row,Binder,Binding intensity (normalized)
1,B2,111
2,B13,40.2
3,B14,36.7
4,B15,5.27
5,B16,32.1
6,B17,33.3
7,B18,17.9
8,B19,16.1
9,B20,30.9
10,B21,26.6
11,B22,26.4
12,B23,26.3
13,B24,23.8
14,B3,10.2
15,B25,19.8
16,B26,12.1
17,B27,14.7
18,B4,99
19,B28,100

row,Binder,Binding intensity (normalized)
1,B5,92
2,B29,19.6
3,B30,17.9
4,B31,17.3
5,B32,2.39
6,B33,17.2
7,B34,16.9
8,B35,15.6
9,B36,14.1
10,B37,12.9
11,B6,11.4
12,B38,10.9
13,B39,10.2
14,B40,6.72
15,B41,9.77
16,B42,9.72
17,B43,8.65
18,B44,8.54
19,B45,8.22

row,Binder,Binding intensity (normalized)
1,B46,7.89
2,B47,7.06
3,B48,6.81
4,B49,6.48
5,B50,6.47
6,B51,6.2
7,B52,5.88
8,B7,79.6
9,B8,4.81
10,B53,4.39
11,B54,3.95
12,B55,1.55
13,B56,3.67
14,B57,3.03
15,B9,78.9
16,B10,77
17,B11,49.2
18,B12,43.4
